Data reported in PMC3409459, “Absorption, distribution, metabolism and excretion of peginesatide, a novel erythropoiesis-stimulating agent, in rats” (Xenobiotica; the Fate of Foreign Compounds in Biological …, 2011).
Read-outs that look alike come from different tables or passages of the source.

Assays:
[1] = Plasma pharmacokinetics of unlabeled peginesatide after a single IV dose (ELISA); assay type: in vivo, male Sprague-Dawley rats; details: for time for which plasma concentrations were quantifiable: LLOQ 40 ng/mL; for AUC0–t / CL / t½ / Cmax: plasma, mean (SD), n=3; for Cmax: value at 0.25 h
Procedure: Plasma samples were analyzed for peginesatide concentration using a competition enzyme linked immunosorbent assay (ELISA) as previously described ([Fan et al. 2006]). The capture anti-peginesatide antibody was a high affinity polyclonal antibody preparation directed against the peptidic part of the molecule so the assay detects mono- and di-PEG-conjugated peptide as well as free peptide. The lower limit of quantitation was 40 ng-mL^1, the intra assay precision (% coefficient of variation) was 5-10% and the intra assay accuracy (% bias) was 1.9-5.7%.
The PK of peginesatide was assessed in male Sprague-Dawley rats following the administration of unlabeled and radiolabeled test article. The linearity of the PK profile was evaluated in rats (n = 3/group) administered a single IV dose of peginesatide at 0.1, 0.5, or 5 mg·kg^−1. Blood samples were collected predose and 0.25,1, 6, and 24h, and 2,3, 5, 7,10,14,17, 21, 24, and 28 days following dosing. Samples were analyzed by ELISA.
Noncompartmental PK parameters for peginesatide and metabolites were generated using WinNonlin ver. 4.0, Pharsight Corporation (Mountain View, CA). The maximum plasma concentration (Cmax) and their times of occurrence (tmax) were obtained directly from the mean plasma concentration vs. time profiles. The areas under the plasma concentration-time curves […] were estimated by the linear trapezoidal rule - by adding all the area portions under the curve from time zero to the time of the last observed plasma concentration (tn). Elimination rate constants (kz) were estimated by fitting a linear regression of log mean concentration against time data in the terminal exponential phase (at least 3 data points). Apparent terminal half-life (t1/2) was calculated as In2/λz. The AUC0-inf was calculated as the sum of AUC0-t and Cobs/λz, where Cobs, was the actual concentration at the time of the last quantifiable concentration. The plasma clearance (CL) for peginesatide was estimated as the ratio of dose/ AUC0-inf. The mean residence time (MRT) was calculated as the ratio of AUMC0-inf/AUC0-inf, where AUMC0-inf was the area under the first moment curve from the time zero to infinity. The volume of distribution at steady state (Vss) was estimated as CL x MRT.

[2] = In vivo metabolite profiling, plasma and tissues at 14 days; design: species or system male Sprague-Dawley rats; details: rat, iv, 5 mg/kg
Procedure: The metabolite profiling in the biological samples from rats dosed with [^14C]-peginesatide was performed by high-performance liquid chromatography (HPLC). The radiolabeled materials in the samples of plasma and aqueous homoge-nates of tissues and feces were extracted with five volumes of methanol containing 0.1% of trifluoroacetic acid (TFA), mixed and centrifuged at 1500g at 4°C for l0 min to obtain supernatant. A portion of the supernatant was counted to estimate the extraction recovery of [^14C]-peginesatide and its related compounds in the biological samples. The rest of the supernatant was evaporated to dryness under a nitrogen gas stream. The residue was re-dissolved in a small volume of equal parts mobile phase [MP(A)] and B [MP(B)] for chromatographic analysis. The HPLC system (Simadzu, Kyoto, Japan) consisted of a LC-lOADvp pump, a CTO-lOACvp column oven, an SPD-lOAvp UV detector, and an SCL-lOAvp system controller. […] A mixture of 0.1% TFA aqueous solution and 0.1% TFA in methanol solution were used for MP(A) and MP(B), respectively. The flow rate was 0.5mL/min, and the peaks were monitored by a UV absorption detector at 215 run. The time for the gradient elution was as follows: the concentration of MP(B) was increased from 50 to 80% and from 80 to 83% over a period of 2-10min and 10-20min, respectively. […] The effluentwas collected into 0.5mL size fractions, followed by counting of the radioactivity (LSC). Under these conditions unchanged peginesatide and mono-PEG eluted at approximately 22 and 10 min, respectively.
A single dose of [^14C]-peginesatide at 5 mg·kg^−1 was administered to male Sprague-Dawley rats (n = 9) by IV injection. At 14 days after dosing, animals were euthanized and samples of plasma, liver, spleen, kidneys, testes, and bone marrow were collected. Plasma and tissue extract samples were analyzed for levels of total radioactivity, peginesatide, and potential metabolites using LSC. Tissue homogenates (prepared in saline at a concentration of 20% [w/v] for the liver, kidneys and testes and 10% [w/v] for the spleen and bone marrow) were analyzed for radioactivity by LSC following combustion. The concentration of radioactivity in the blood, plasma, and tissues was calculated and expressed as ug equiv·g^-1 or mL based on the LSC counts and the specific activity of the dosing solution.

[3] = as above; design: species or system male Sprague-Dawley rats; details: single IV 5 mg/kg [^14C]-peginesatide; HPLC fractions/LSC; n = 3
[4] = ref Fan et al. 2006; cited from earlier work
Procedure: Multiple clearance mechanisms may be involved with peginesatide as clearance involves glomerular filtration; a presumably non-saturable elimination. […] High concentrations of radioactivity were also measured in the liver. In addition, negligible excretion (<0.1%) of the radiolabel was d ...

[5] = ref Im et al. 2010, cited from earlier work
Description: The totality of the metabolism data is consistent with in vitro studies conducted in liver and kidney micro-somes and S9 fractions from rats, monkeys, and human donors ([Im et al. 2010]).

[6] = Mass balance study (urine, feces, expired air, carcass); details: initial 3 days after dosing; single IV 5 mg·kg^−1
Description: Radioactivity in diluted formulations, plasma, urine, and expired air (CO2-absorbent solution) was quantitated by mixingwith liquid scintillator Hionic-Fluor (PerkinElmer Life and Analytical Sciences) followed by liquid scintillation counting (LSC). Solid samples were homogenized (10 or 20% w/v in distilled water) before combustion in a sample oxidizer (A030701; PerkinElmer Life and Analytical Sciences) with Carbo-Sorb E (PerkinElmer Life and Analytical Sciences) as a carbon dioxide absorbent and Permafluor E^+ (PerkinElmer Life and Analytical Sciences) as a liquid scintillator. Total captured radioactivity was subsequently measured via LSC.
Urine and feces were collected at 24-h intervals up to 14 days after dosing and expired air was collected up to 24 h after dosing. The levels of radioactivity in urine and expired air were measured by LSC and in feces by LSC following combustion. After the final collection of excreta at 2 weeks, the animals were sacrificed and the carcasses were dissolved in potassium hydroxide/distilled water/ethanol (3:3:7, w/v/v), and examined for residual radioactivity by LSC.

**Q.** What does the source list for Peginesatide?
**A.** time for which plasma concentrations were quantifiable ([1]; 0.1 mg·kg^−1 IV): 3 days; AUC0–t ([1]; 0.1 mg·kg^−1 IV): 60.3 (4.71) μg·h/mL; CL ([1]; 0.1 mg·kg^−1 IV): 1.65 (0.13) mL/h/kg; t½ ([1]; 0.1 mg·kg^−1 IV): 17.5 (0.3) h; Cmax ([1]; 0.1 mg·kg^−1 IV): 2.56 (0.162) μg/mL; AUC0–t ([1]; 0.5 mg·kg^−1 IV): 388 (48.8) μg·h/mL; CL ([1]; 0.5 mg·kg^−1 IV): 1.29 (0.18) mL/h/kg; t½ ([1]; 0.5 mg·kg^−1 IV): 19.7 (2.6) h; Cmax ([1]; 0.5 mg·kg^−1 IV): 13.5 (1.40) μg/mL; time for which plasma concentrations were quantifiable ([1]; 5 mg·kg^−1 IV): up to 7 days; AUC0–t ([1]; 5 mg·kg^−1 IV): 5405 (327) μg·h/mL; CL ([1]; 5 mg·kg^−1 IV): 0.92 (0.06) mL/h/kg; t½ ([1]; 5 mg·kg^−1 IV): 31.6 (3.4) h; Cmax ([1]; 5 mg·kg^−1 IV): 137 (6.19) μg/mL; Day 14 concentration, Bone marrow [2]: 3.22 μg equiv·g^−1 or mL; Day 14 concentration, Liver [2]: 5.63 μg equiv·g^−1 or mL; Day 14 concentration, Plasma [2]: 1.94 μg equiv·g^−1 or mL; Day 14 concentration, Spleen [2]: 14.3 μg equiv·g^−1 or mL; Day 14 concentration, Testes [2]: 2.68 μg equiv·g^−1 or mL; percent radioactivity, Bone marrow, Day 14 [2]: 58.2%; percent radioactivity, Kidneys, Day 14 [2]: 54.1%; percent radioactivity, Liver, Day 14 [2]: 63.2%; percent radioactivity, Spleen, Day 14 [2]: 61.2%; percent radioactivity, Testes, Day 14 [2]: 66.0%; share of total tissue radioactivity across liver, spleen, kidney, testes and bone marrow [2]: 54-66%; Day 14 concentration, Kidneys [3]: 2.64 μg equiv·g^−1 or mL; clearance in a rat chronic renal insufficiency model compared to a rat with normal renal function [4]: twofold lower clearance; metabolites after incubation with microsomes (metabolic stability in vitro) ([5]; human donor liver and kidney microsomes and S9 fractions): no metabolites were observed; metabolites after incubation with microsomes (metabolic stability in vitro) ([5]; monkey liver and kidney microsomes and S9 fractions): no metabolites were observed; metabolites after incubation with microsomes (metabolic stability in vitro) ([5]; rat liver and kidney microsomes and S9 fractions): no metabolites were observed; fecal recovery of the total radioactive dose [6]: 5 % of the total radioactive dose; urinary recovery of the total radioactive dose [6]: 23 % of the total radioactive dose
